In patent publication US20140087995A1 (published 2014):
One block for each binder: values may come before it. Numbered stars: 1 amine (or outer) side, 2 acyl side, 3 side chain; on linkers, the order of the positions; unused ones are H or OH. Bridge positions count the residues as written; N and C are the ends. Side chains are listed from the residue outwards. Ends that are not written are not given here. * marks the point of attachment. C20 diacid = O=C(O)CCCCCCCCCCCCCCCCCCC(=O)*; C18 diacid = O=C(O)CCCCCCCCCCCCCCCCC(=O)*; C16 diacid = O=C(O)CCCCCCCCCCCCCCC(=O)*; γGlu = O=C(O)[C@H](CCC(=O)[*:2])N[*:1]; AEEA = NCCOCCOCC(=O)O

Biological target: T1, human amylin receptor (human, UniProt P30988 25-474; O60896 24-148, limits assumed)
T1 construct: whole, on cells; Calcitonin receptor plus RAMP-3 gives the amylin 3(a) receptor; membranes of Amylin 3(a)/CRE-luc cells were used; also called hAmylin-R; hAmylinR
T1 sequence (looked up) 1: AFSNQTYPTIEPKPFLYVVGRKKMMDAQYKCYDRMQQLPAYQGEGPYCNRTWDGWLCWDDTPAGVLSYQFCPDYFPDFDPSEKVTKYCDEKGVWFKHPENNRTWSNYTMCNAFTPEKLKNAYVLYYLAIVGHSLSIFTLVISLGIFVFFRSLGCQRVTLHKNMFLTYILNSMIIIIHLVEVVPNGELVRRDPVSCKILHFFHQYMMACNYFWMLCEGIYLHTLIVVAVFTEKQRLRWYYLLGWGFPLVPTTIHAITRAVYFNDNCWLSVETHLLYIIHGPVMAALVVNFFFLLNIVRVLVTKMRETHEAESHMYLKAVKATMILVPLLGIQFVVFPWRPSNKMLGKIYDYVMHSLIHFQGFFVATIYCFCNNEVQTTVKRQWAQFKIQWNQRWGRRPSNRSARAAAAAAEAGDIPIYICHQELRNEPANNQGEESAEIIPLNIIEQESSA
T1 sequence (looked up) 2: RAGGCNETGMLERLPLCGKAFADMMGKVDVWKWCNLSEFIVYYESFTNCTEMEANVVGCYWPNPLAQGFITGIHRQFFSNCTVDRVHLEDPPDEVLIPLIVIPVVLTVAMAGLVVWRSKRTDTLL
Assay: SPA competition binding, displacement of 125I-rat amylin from membranes with human amylin 3(a) receptor (Assay V)
Summary of the method: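 SPA beads with BHK Amylin 3(a)/CRE-luc cell membranes (35 ng/μL final) in 50 mM Hepes pH 7.4, 1 mM CaCl2, 5 mM MgCl₂, 0.1% OA, 0.02% Tween20.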

B1: N^ε1-[2-[2-[2-[[(4S)-4-carboxy-4-(19-carboxynonadecanoylamino)butanoyl]amino]ethoxy]ethoxy]acetyl]-[Lys14,Arg17,Pro21,Pro27,Pro31]-h-amylin (peptide)
peptide: K([AEEA-γGlu-C20 diacid])CNTATCATQRLAKFLRHSSPNFGAIPSSTPVGSNTY-NH2
modifications: disulfide 2-7; N-terminus assumed
SMILES: CC[C@H](C)[C@H](NC(=O)[C@H](C)NC(=O)CNC(=O)[C@H](Cc1ccccc1)NC(=O)[C@H](CC(N)=O)NC(=O)[C@@H]1CCCN1C(=O)[C@H](CO)NC(=O)[C@H](CO)NC(=O)[C@H](Cc1c[nH]cn1)NC(=O)[C@H](CCCNC(=N)N)NC(=O)[C@H](CC(C)C)NC(=O)[C@H](Cc1ccccc1)NC(=O)[C@H](CCCCN)NC(=O)[C@H](C)NC(=O)[C@H](CC(C)C)NC(=O)[C@H](CCCNC(=N)N)NC(=O)[C@H](CCC(N)=O)NC(=O)[C@@H](NC(=O)[C@H](C)NC(=O)[C@@H]1CSSC[C@H](NC(=O)[C@@H](N)CCCCNC(=O)COCCOCCNC(=O)CC[C@H](NC(=O)CCCCCCCCCCCCCCCCCCC(=O)O)C(=O)O)C(=O)N[C@@H](CC(N)=O)C(=O)N[C@@H]([C@@H](C)O)C(=O)N[C@@H](C)C(=O)N[C@@H]([C@@H](C)O)C(=O)N1)[C@@H](C)O)C(=O)N1CCC[C@H]1C(=O)N[C@@H](CO)C(=O)N[C@@H](CO)C(=O)N[C@H](C(=O)N1CCC[C@H]1C(=O)N[C@H](C(=O)NCC(=O)N[C@@H](CO)C(=O)N[C@@H](CC(N)=O)C(=O)N[C@H](C(=O)N[C@@H](Cc1ccc(O)cc1)C(N)=O)[C@@H](C)O)C(C)C)[C@@H](C)O
notes: also called 14K, 17R, 21P, 27P, 31P
IC50: 0.791 nM

B3: N^ε1-[2-[2-[2-[[(4S)-4-carboxy-4-(19-carboxynonadecanoylamino)butanoyl]amino]ethoxy]ethoxy]acetyl]-[Thr14,Arg17,Pro21,Pro27,Pro31]-h-amylin (peptide)
peptide: K([AEEA-γGlu-C20 diacid])CNTATCATQRLATFLRHSSPNFGAIPSSTPVGSNTY-NH2
modifications: disulfide 2-7; N-terminus assumed
SMILES: CC[C@H](C)[C@H](NC(=O)[C@H](C)NC(=O)CNC(=O)[C@H](Cc1ccccc1)NC(=O)[C@H](CC(N)=O)NC(=O)[C@@H]1CCCN1C(=O)[C@H](CO)NC(=O)[C@H](CO)NC(=O)[C@H](Cc1c[nH]cn1)NC(=O)[C@H](CCCNC(=N)N)NC(=O)[C@H](CC(C)C)NC(=O)[C@H](Cc1ccccc1)NC(=O)[C@@H](NC(=O)[C@H](C)NC(=O)[C@H](CC(C)C)NC(=O)[C@H](CCCNC(=N)N)NC(=O)[C@H](CCC(N)=O)NC(=O)[C@@H](NC(=O)[C@H](C)NC(=O)[C@@H]1CSSC[C@H](NC(=O)[C@@H](N)CCCCNC(=O)COCCOCCNC(=O)CC[C@H](NC(=O)CCCCCCCCCCCCCCCCCCC(=O)O)C(=O)O)C(=O)N[C@@H](CC(N)=O)C(=O)N[C@@H]([C@@H](C)O)C(=O)N[C@@H](C)C(=O)N[C@@H]([C@@H](C)O)C(=O)N1)[C@@H](C)O)[C@@H](C)O)C(=O)N1CCC[C@H]1C(=O)N[C@@H](CO)C(=O)N[C@@H](CO)C(=O)N[C@H](C(=O)N1CCC[C@H]1C(=O)N[C@H](C(=O)NCC(=O)N[C@@H](CO)C(=O)N[C@@H](CC(N)=O)C(=O)N[C@H](C(=O)N[C@@H](Cc1ccc(O)cc1)C(N)=O)[C@@H](C)O)C(C)C)[C@@H](C)O
notes: also called 14T, 17R, 21P, 27P, 31P
IC50: 0.666 nM

B5: N^ε1-[(4S)-4-carboxy-4-(15-carboxypentadecanoylamino)butanoyl]-[Arg17,Pro21,Pro27,His34]-h-amylin (peptide)
peptide: K([γGlu-C16 diacid])CNTATCATQRLANFLRHSSPNFGAIPSSTNVGHNTY-NH2
modifications: disulfide 2-7; N-terminus assumed
SMILES: CC[C@H](C)[C@H](NC(=O)[C@H](C)NC(=O)CNC(=O)[C@H](Cc1ccccc1)NC(=O)[C@H](CC(N)=O)NC(=O)[C@@H]1CCCN1C(=O)[C@H](CO)NC(=O)[C@H](CO)NC(=O)[C@H](Cc1c[nH]cn1)NC(=O)[C@H](CCCNC(=N)N)NC(=O)[C@H](CC(C)C)NC(=O)[C@H](Cc1ccccc1)NC(=O)[C@H](CC(N)=O)NC(=O)[C@H](C)NC(=O)[C@H](CC(C)C)NC(=O)[C@H](CCCNC(=N)N)NC(=O)[C@H](CCC(N)=O)NC(=O)[C@@H](NC(=O)[C@H](C)NC(=O)[C@@H]1CSSC[C@H](NC(=O)[C@@H](N)CCCCNC(=O)CC[C@H](NC(=O)CCCCCCCCCCCCCCC(=O)O)C(=O)O)C(=O)N[C@@H](CC(N)=O)C(=O)N[C@@H]([C@@H](C)O)C(=O)N[C@@H](C)C(=O)N[C@@H]([C@@H](C)O)C(=O)N1)[C@@H](C)O)C(=O)N1CCC[C@H]1C(=O)N[C@@H](CO)C(=O)N[C@@H](CO)C(=O)N[C@H](C(=O)N[C@@H](CC(N)=O)C(=O)N[C@H](C(=O)NCC(=O)N[C@@H](Cc1c[nH]cn1)C(=O)N[C@@H](CC(N)=O)C(=O)N[C@H](C(=O)N[C@@H](Cc1ccc(O)cc1)C(N)=O)[C@@H](C)O)C(C)C)[C@@H](C)O
notes: also called 17R, 21P, 27P, 34H
IC50: 0.58 nM

B6: N^ε1-[(4S)-4-carboxy-4-(17-carboxyheptadecanoylamino)butanoyl]-[Arg17,Pro21,Pro27,His34]-h-amylin (peptide)
peptide: K([γGlu-C18 diacid])CNTATCATQRLANFLRHSSPNFGAIPSSTNVGHNTY-NH2
modifications: disulfide 2-7; N-terminus assumed
SMILES: CC[C@H](C)[C@H](NC(=O)[C@H](C)NC(=O)CNC(=O)[C@H](Cc1ccccc1)NC(=O)[C@H](CC(N)=O)NC(=O)[C@@H]1CCCN1C(=O)[C@H](CO)NC(=O)[C@H](CO)NC(=O)[C@H](Cc1c[nH]cn1)NC(=O)[C@H](CCCNC(=N)N)NC(=O)[C@H](CC(C)C)NC(=O)[C@H](Cc1ccccc1)NC(=O)[C@H](CC(N)=O)NC(=O)[C@H](C)NC(=O)[C@H](CC(C)C)NC(=O)[C@H](CCCNC(=N)N)NC(=O)[C@H](CCC(N)=O)NC(=O)[C@@H](NC(=O)[C@H](C)NC(=O)[C@@H]1CSSC[C@H](NC(=O)[C@@H](N)CCCCNC(=O)CC[C@H](NC(=O)CCCCCCCCCCCCCCCCC(=O)O)C(=O)O)C(=O)N[C@@H](CC(N)=O)C(=O)N[C@@H]([C@@H](C)O)C(=O)N[C@@H](C)C(=O)N[C@@H]([C@@H](C)O)C(=O)N1)[C@@H](C)O)C(=O)N1CCC[C@H]1C(=O)N[C@@H](CO)C(=O)N[C@@H](CO)C(=O)N[C@H](C(=O)N[C@@H](CC(N)=O)C(=O)N[C@H](C(=O)NCC(=O)N[C@@H](Cc1c[nH]cn1)C(=O)N[C@@H](CC(N)=O)C(=O)N[C@H](C(=O)N[C@@H](Cc1ccc(O)cc1)C(N)=O)[C@@H](C)O)C(C)C)[C@@H](C)O
notes: as for B5
IC50: 0.382 nM

Now those with a lower IC50, led by results:

IC50: 0.176 nM
B2: N^ε1-[(4S)-4-carboxy-4-(19-carboxynonadecanoylamino)butanoyl]-[Ala14,Arg17,Pro21,Pro27,His34]-h-amylin (peptide)
peptide: K([γGlu-C20 diacid])CNTATCATQRLAAFLRHSSPNFGAIPSSTNVGHNTY-NH2
modifications: disulfide 2-7; N-terminus assumed
SMILES: CC[C@H](C)[C@H](NC(=O)[C@H](C)NC(=O)CNC(=O)[C@H](Cc1ccccc1)NC(=O)[C@H](CC(N)=O)NC(=O)[C@@H]1CCCN1C(=O)[C@H](CO)NC(=O)[C@H](CO)NC(=O)[C@H](Cc1c[nH]cn1)NC(=O)[C@H](CCCNC(=N)N)NC(=O)[C@H](CC(C)C)NC(=O)[C@H](Cc1ccccc1)NC(=O)[C@H](C)NC(=O)[C@H](C)NC(=O)[C@H](CC(C)C)NC(=O)[C@H](CCCNC(=N)N)NC(=O)[C@H](CCC(N)=O)NC(=O)[C@@H](NC(=O)[C@H](C)NC(=O)[C@@H]1CSSC[C@H](NC(=O)[C@@H](N)CCCCNC(=O)CC[C@H](NC(=O)CCCCCCCCCCCCCCCCCCC(=O)O)C(=O)O)C(=O)N[C@@H](CC(N)=O)C(=O)N[C@@H]([C@@H](C)O)C(=O)N[C@@H](C)C(=O)N[C@@H]([C@@H](C)O)C(=O)N1)[C@@H](C)O)C(=O)N1CCC[C@H]1C(=O)N[C@@H](CO)C(=O)N[C@@H](CO)C(=O)N[C@H](C(=O)N[C@@H](CC(N)=O)C(=O)N[C@H](C(=O)NCC(=O)N[C@@H](Cc1c[nH]cn1)C(=O)N[C@@H](CC(N)=O)C(=O)N[C@H](C(=O)N[C@@H](Cc1ccc(O)cc1)C(N)=O)[C@@H](C)O)C(C)C)[C@@H](C)O
notes: also called 14A, 17R, 21P, 27P, 34H

IC50: 0.104 nM
B4: N^ε1-[2-[2-[2-[[(4S)-4-carboxy-4-(19-carboxynonadecanoylamino)butanoyl]amino]ethoxy]ethoxy]acetyl]-[Ser14,Arg17,Pro21,Pro27,Pro31]-h-amylin (peptide)
peptide: K([AEEA-γGlu-C20 diacid])CNTATCATQRLASFLRHSSPNFGAIPSSTPVGSNTY-NH2
modifications: disulfide 2-7; N-terminus assumed
SMILES: CC[C@H](C)[C@H](NC(=O)[C@H](C)NC(=O)CNC(=O)[C@H](Cc1ccccc1)NC(=O)[C@H](CC(N)=O)NC(=O)[C@@H]1CCCN1C(=O)[C@H](CO)NC(=O)[C@H](CO)NC(=O)[C@H](Cc1c[nH]cn1)NC(=O)[C@H](CCCNC(=N)N)NC(=O)[C@H](CC(C)C)NC(=O)[C@H](Cc1ccccc1)NC(=O)[C@H](CO)NC(=O)[C@H](C)NC(=O)[C@H](CC(C)C)NC(=O)[C@H](CCCNC(=N)N)NC(=O)[C@H](CCC(N)=O)NC(=O)[C@@H](NC(=O)[C@H](C)NC(=O)[C@@H]1CSSC[C@H](NC(=O)[C@@H](N)CCCCNC(=O)COCCOCCNC(=O)CC[C@H](NC(=O)CCCCCCCCCCCCCCCCCCC(=O)O)C(=O)O)C(=O)N[C@@H](CC(N)=O)C(=O)N[C@@H]([C@@H](C)O)C(=O)N[C@@H](C)C(=O)N[C@@H]([C@@H](C)O)C(=O)N1)[C@@H](C)O)C(=O)N1CCC[C@H]1C(=O)N[C@@H](CO)C(=O)N[C@@H](CO)C(=O)N[C@H](C(=O)N1CCC[C@H]1C(=O)N[C@H](C(=O)NCC(=O)N[C@@H](CO)C(=O)N[C@@H](CC(N)=O)C(=O)N[C@H](C(=O)N[C@@H](Cc1ccc(O)cc1)C(N)=O)[C@@H](C)O)C(C)C)[C@@H](C)O
notes: also called 14S, 17R, 21P, 27P, 31P
